± gives the uncertainty stated by the source.
B1: Zinc finger MYM-type protein 2, residues 463 to 506; numbered along this chain, Q9UBW7 (parent)
chain: IMNCCEQCGEYLPSKGAGNNVLVIDGQQKRFCCQSCVSEYKQVG
B2: Transcription intermediary factor 1-beta, residues 620 to 671; numbered along this chain, Q13263 (parent)
chain: TLDDSATICRVCQKPGDLVMCNQCEFCFHLDCHLPALQDVPGEEWSCSLCHV

Variants of: B1
Assay: abundance fitness (aPCA) (normalised: wild type 0, dead -1); higher = more abundant; growth selection in yeast, the domain comes from the species named
Settings: Homo sapiens

Row | Variant | abundance fitness
1 | IMGCCEQCGEYLPSKGAGNNVLVIDGQQKRFCCQSCVSEYKQVG | -0.119 ± 0.076
2 | IMHCCEQCGEYLPSKGAGNNVLVIDGQQKRFCCQSCVSEYKQVG | -0.154 ± 0.1
3 | IMFCCEQCGEYLPSKGAGNNVLVIDGQQKRFCCQSCVSEYKQVG | -0.035 ± 0.34
4 | IMACCEQCGEYLPSKGAGNNVLVIDGQQKRFCCQSCVSEYKQVG | -0.09 ± 0.073
5 | IMECCEQCGEYLPSKGAGNNVLVIDGQQKRFCCQSCVSEYKQVG | -0.036 ± 0.087
6 | IMICCEQCGEYLPSKGAGNNVLVIDGQQKRFCCQSCVSEYKQVG | -0.237 ± 0.32
7 | IMCCCEQCGEYLPSKGAGNNVLVIDGQQKRFCCQSCVSEYKQVG | -0.215 ± 0.36
8 | IMDCCEQCGEYLPSKGAGNNVLVIDGQQKRFCCQSCVSEYKQVG | -0.045 ± 0.12
9 | ISNCCEQCGEYLPSKGAGNNVLVIDGQQKRFCCQSCVSEYKQVG | 0.073 ± 0.087
10 | ITNCCEQCGEYLPSKGAGNNVLVIDGQQKRFCCQSCVSEYKQVG | -0.059 ± 0.097
11 | IRNCCEQCGEYLPSKGAGNNVLVIDGQQKRFCCQSCVSEYKQVG | -0.179 ± 0.079
12 | IPNCCEQCGEYLPSKGAGNNVLVIDGQQKRFCCQSCVSEYKQVG | -0.376 ± 0.15
13 | IGNCCEQCGEYLPSKGAGNNVLVIDGQQKRFCCQSCVSEYKQVG | -0.148 ± 0.074
14 | ILNCCEQCGEYLPSKGAGNNVLVIDGQQKRFCCQSCVSEYKQVG | -0.104 ± 0.093
15 | INNCCEQCGEYLPSKGAGNNVLVIDGQQKRFCCQSCVSEYKQVG | -0.009 ± 0.29
16 | ICNCCEQCGEYLPSKGAGNNVLVIDGQQKRFCCQSCVSEYKQVG | -0.286 ± 0.13
17 | IWNCCEQCGEYLPSKGAGNNVLVIDGQQKRFCCQSCVSEYKQVG | -0.687 ± 0.18
18 | IDNCCEQCGEYLPSKGAGNNVLVIDGQQKRFCCQSCVSEYKQVG | -0.049 ± 0.15
19 | IINCCEQCGEYLPSKGAGNNVLVIDGQQKRFCCQSCVSEYKQVG | -0.145 ± 0.1
20 | IQNCCEQCGEYLPSKGAGNNVLVIDGQQKRFCCQSCVSEYKQVG | -0.141 ± 0.24

Row | Variant | abundance fitness
21 | IKNCCEQCGEYLPSKGAGNNVLVIDGQQKRFCCQSCVSEYKQVG | 0.124 ± 0.1
22 | IANCCEQCGEYLPSKGAGNNVLVIDGQQKRFCCQSCVSEYKQVG | -0.162 ± 0.1
23 | IENCCEQCGEYLPSKGAGNNVLVIDGQQKRFCCQSCVSEYKQVG | 0.118 ± 0.12
24 | IHNCCEQCGEYLPSKGAGNNVLVIDGQQKRFCCQSCVSEYKQVG | -0.25 ± 0.19
25 | DMNCCEQCGEYLPSKGAGNNVLVIDGQQKRFCCQSCVSEYKQVG | 0.231 ± 0.19
26 | RMNCCEQCGEYLPSKGAGNNVLVIDGQQKRFCCQSCVSEYKQVG | -0.255 ± 0.094
27 | WMNCCEQCGEYLPSKGAGNNVLVIDGQQKRFCCQSCVSEYKQVG | -0.746 ± 0.13
28 | SMNCCEQCGEYLPSKGAGNNVLVIDGQQKRFCCQSCVSEYKQVG | -0.172 ± 0.12
29 | AMNCCEQCGEYLPSKGAGNNVLVIDGQQKRFCCQSCVSEYKQVG | -0.051 ± 0.085
30 | TMNCCEQCGEYLPSKGAGNNVLVIDGQQKRFCCQSCVSEYKQVG | -0.162 ± 0.14
31 | FMNCCEQCGEYLPSKGAGNNVLVIDGQQKRFCCQSCVSEYKQVG | -0.307 ± 0.13
32 | PMNCCEQCGEYLPSKGAGNNVLVIDGQQKRFCCQSCVSEYKQVG | -0.222 ± 0.33
33 | VMNCCEQCGEYLPSKGAGNNVLVIDGQQKRFCCQSCVSEYKQVG | 0 ± 0.1
34 | MMNCCEQCGEYLPSKGAGNNVLVIDGQQKRFCCQSCVSEYKQVG | 0.169 ± 0.22
35 | LMNCCEQCGEYLPSKGAGNNVLVIDGQQKRFCCQSCVSEYKQVG | -0.246 ± 0.29
36 | EMNCCEQCGEYLPSKGAGNNVLVIDGQQKRFCCQSCVSEYKQVG | -0.012 ± 0.14
37 | GMNCCEQCGEYLPSKGAGNNVLVIDGQQKRFCCQSCVSEYKQVG | -0.15 ± 0.089
38 | YMNCCEQCGEYLPSKGAGNNVLVIDGQQKRFCCQSCVSEYKQVG | -0.402 ± 0.21
39 | NMNCCEQCGEYLPSKGAGNNVLVIDGQQKRFCCQSCVSEYKQVG | 0.097 ± 0.1

Variants of: B2
Assay: as above
Settings: Homo sapiens

Row | Variant | abundance fitness
40 | E43S | -0.007 ± 0.095
41 | E43Y | -0.486 ± 0.22
42 | E43D | 0.088 ± 0.17
43 | E43P | -0.032 ± 0.14
44 | E43N | -0.089 ± 0.37
45 | E43Q | -0.298 ± 0.19
46 | E43L | -0.085 ± 0.086
47 | E43W | -0.2 ± 0.1
48 | E43H | 0.062 ± 0.22
49 | E43I | -0.092 ± 0.14
50 | E43C | -0.129 ± 0.12
51 | E43V | -0.165 ± 0.086
52 | E43A | 0.035 ± 0.11
53 | W45L | -0.195 ± 0.091
54 | W45G | -0.137 ± 0.086
55 | W45C | -0.283 ± 0.11
56 | W45D | -0.506 ± 0.14
57 | W45A | 0.051 ± 0.13
58 | W45E | -0.158 ± 0.14
59 | W45F | -0.342 ± 0.16
60 | W45V | -0.236 ± 0.099
61 | W45H | -0.103 ± 0.2
62 | W45Y | -0.202 ± 0.19

Row | Variant | abundance fitness
63 | W45Q | -0.085 ± 0.22
64 | W45R | -0.131 ± 0.089
65 | W45I | -0.254 ± 0.16
66 | W45N | -0.377 ± 0.3
67 | W45T | -0.54 ± 0.16
68 | W45M | -0.296 ± 0.2
69 | S48H | 0.052 ± 0.21
70 | S48T | -0.217 ± 0.1
71 | S48Y | -0.094 ± 0.14
72 | S48L | -0.409 ± 0.097
73 | S48D | -0.242 ± 0.17
74 | S48I | -0.798 ± 0.2
75 | S48F | -0.45 ± 0.18
76 | S48N | -0.114 ± 0.28
77 | S48V | -0.508 ± 0.085
78 | S48R | 0.105 ± 0.087
79 | S48M | 0.386 ± 0.1
80 | S48G | -0.071 ± 0.083
81 | S48W | 0.057 ± 0.13
82 | S48A | -0.112 ± 0.1
83 | S48Q | -0.234 ± 0.18
84 | S48E | -0.014 ± 0.12
85 | S48C | -0.324 ± 0.2

Row | Variant | abundance fitness
86 | S48P | 0.152 ± 0.12
87 | S46M | 0.082 ± 0.1
88 | S46C | -0.116 ± 0.091
89 | S46V | 0.059 ± 0.072
90 | S46A | 0.128 ± 0.077
91 | S46T | -0.09 ± 0.11
92 | S46Y | -0.245 ± 0.12
93 | S46E | 0.111 ± 0.082
94 | S46I | -0.01 ± 0.12
95 | S46K | 0.155 ± 0.1
96 | S46H | -0.113 ± 0.14
97 | S46W | -0.131 ± 0.098
98 | S46F | -0.129 ± 0.11
99 | S46L | -0.003 ± 0.078
100 | S46P | -0.208 ± 0.13
101 | S46Q | 0.118 ± 0.094
102 | S46R | -0.101 ± 0.074
103 | S46N | 0.018 ± 0.13
104 | E44P | -0.369 ± 0.13
105 | E44L | -0.253 ± 0.087
106 | E44N | -0.16 ± 0.2
107 | E44V | -0.217 ± 0.085
108 | E44K | -0.172 ± 0.13

Row | Variant | abundance fitness
109 | E44G | -0.042 ± 0.11
110 | E44S | -0.07 ± 0.11
111 | E44Q | -0.057 ± 0.13
112 | E44Y | -0.143 ± 0.23
113 | E44I | -0.35 ± 0.18
114 | E44F | -0.412 ± 0.2
115 | E44A | -0.226 ± 0.11
116 | E44R | -0.08 ± 0.095
117 | E44T | -0.164 ± 0.14
118 | E44C | 0.058 ± 0.15
119 | E44M | -0.058 ± 0.12
120 | V40Q | -0.383 ± 0.21
121 | V40D | -0.02 ± 0.15
122 | V40H | -0.361 ± 0.24
123 | V40L | -0.221 ± 0.11
124 | V40Y | -0.121 ± 0.22
125 | V40R | 0.166 ± 0.098
126 | V40E | -0.403 ± 0.17
127 | V40A | -0.323 ± 0.14
128 | V40K | -0.221 ± 0.35
129 | V40C | -0.401 ± 0.17
130 | V40W | -0.101 ± 0.14
131 | V40F | 0.01 ± 0.12
